Patent US20190203227A1 (WILLIAM MARSH RICE UNIVERSITY, published 2019)

Biological target: T1, wild-type recombinant adeno-associated virus serotype 2 (adeno-associated virus serotype 2, UniProt P03135 1-735; P03135 139-735; P03135 203-735)
T1 construct: Assembled virus capsid; Control virus without PIF6; also called wtAAV2; wtAAV
Assay: Ni2+ column capture with immobilised PhyB, qPCR of viral genomes, far-red (730 nm) light

Row | Binder | binding result
1 | PhyB917-His6 (other, phycocyanobilin (PCB) chromophore bound after incubation with 5 uM PCB (residue not stated), Light-switchable phytochrome B fragment, immobilised on a Ni2+ column) MGASGVSGVGGSGGGRGGGRGGEEEPSSSHTPNNRRGGEQAQSSGTKSLRPRSNTESMSKAIQQYTVDARLHAVFEQSGESGKSFDYSQSLKTTTYGSSVPEQQITAYLSRIQRGGYIQPFGCMIAVDESSFRIIGYSENAREMLGIMPQSVPTLEKPEILAMGTDVRSLFTSSSSILLERAFVAREITLLNPVWIHSKNTGKPFYAILHRIDVGVVIDLEPARTEDPALSIAGAVQSQKLAVRAISQLQALPGGDIKLLCDTVVESVRDLTGYDRVMVYKFHEDEHGEVVAESKRDDLEPYIGLHYPATDIPQASRFLFKQNRVRMIVDCNATPVLVVQDDRLTQSMCLVGSTLRAPHGCHSQYMANMGSIASLAMAVIINGNEDDGSNVASGRSSMRLWGLVVCHHTSSRCIPFPLRYACEFLMQAFGLQLNMELQLALQMSEKRVLRTQTLLCDMLLRDSPAGIVTQSPSIMDLVKCDGAAFLYHGKYYPLGVAPSEVQIKDVVEWLLANHADSTGLSTDSLGDAGYPGAAALGDAVCGMAVAYITKRDFLFWFRSHTAKEIKWGGAKHHPEDKDDGQRMHPRSSFQAFLEVVKSRSQPWETAEMDAIHSLQLILRDSFKESEAAMNSKVVDGVVQPCRDMAGEQGIDELGAVAREMVRLIETATVPIFAVDAGGCINGWNAKIAELTGLSVEEAMGKSLVSDLIYKENEATVNKLLSRALRGDEEKNVEVKLKTFSPELQGKAVFVVVNACSSKDYLNNIVGVCFVGQDVTSQKIVMDKFINIQGDYKAIVHSPNPLIPPIFAADENTCCLEWNMAMEKLTGWSRSEVIGKMIVGEVFGSCCMLKGPDALTKFMIVLHNAIGGQDTDKFPFPFFDRNGKFVQALLTANKRVSLEGKVIGAFCFLQIPSPELQQALAVGGSHHHHHH | no binding
2 | PhyB651-His6 (other, phycocyanobilin (PCB) chromophore bound after incubation with 5 uM PCB (residue not stated)) MVSGVGGSGGGRGGGRGGEEEPSSSHTPNNRRGGEQAQSSGTKSLRPRSNTESMSKAIQQYTVDARLHAVFEQSGESGKSFDYSQSLKTTTYGSSVPEQQITAYLSRIQRGGYIQPFGCMIAVDESSFRIIGYSENAREMLGIMPQSVPTLEKPEILAMGTDVRSLFTSSSSILLERAFVAREITLLNPVWIHSKNTGKPFYAILHRIDVGVVIDLEPARTEDPALSIAGAVQSQKLAVRAISQLQALPGGDIKLLCDTVVESVRDLTGYDRVMVYKFHEDEHGEVVAESKRDDLEPYIGLHYPATDIPQASRFLFKQNRVRMIVDCNATPVLVVQDDRLTQSMCLVGSTLRAPHGCHSQYMANMGSIASLAMAVIINGNEDDGSNVASGRSSMRLWGLVVCHHTSSRCIPFPLRYACEFLMQAFGLQLNMELQLALQMSEKRVLRTQTLLCDMLLRDSPAGIVTQSPSIMDLVKCDGAAFLYHGKYYPLGVAPSEVQIKDVVEWLLANHADSTGLSTDSLGDAGYPGAAALGDAVCGMAVAYITKRDFLFWFRSHTAKEIKWGGAKHHPEDKDDGQRMHPRSSFQAFLEVVKSRSQPWETAEMDAIHSLQLILRDSFKESEAAMNSKVVDGVVQPCRDMAGEQGIDELGAHHHHHH | no binding
